Substitutions are numbered along the chain they refer to. Names may count otherwise.
Legend:
[1] = molecular target: the molecule itself; test: negative-stain TEM, circular dichroism and amyloid-dye
[2] = molecular target: the molecule itself; test: centrifugation

B1: Cdc19^WT (wild-type pyruvate kinase Cdc19, strep-tagged, recombinant) (enzyme, S. cerevisiae, UniProt P00549 1-500, looked up)
chain: MSRLERLTSLNVVAGSDLRRTSIIGTIGPKTNNPETLVALRKAGLNIVRMNFSHGSYEYHKSVIDNARKSEELYPGRPLAIALDTKGPEIRTGTTTNDVDYPIPPNHEMIFTTDDKYAKACDDKIMYVDYKNITKVISAGRIIYVDDGVLSFQVLEVVDDKTLKVKALNAGKICSHKGVNLPGTDVDLPALSEKDKEDLRFGVKNGVHMVFASFIRTANDVLTIREVLGEQGKDVKIIVKIENQQGVNNFDEILKVTDGVMVARGDLGIEIPAPEVLAVQKKLIAKSNLAGKPVICATQMLESMTYNPRPTRAEVSDVGNAILDGADCVMLSGETAKGNYPINAVTTMAETAVIAEQAIAYLPNYDDMRNCTPKPTSTTETVAASAVAAVFEQKAKAIIVLSTSGTTPRLVSKYRPNCPIILVTRCPRAARFSHLYRGVFPFVFEKEPVSDWTDDVEARINFGIEKAKEFGILKKGDTYVSIQGFKAGAGHSNTLQVSTV
- binding result [1]: binds

B2: Cdc19^ΔFBP (Cdc19 point-mutant T403E unable to bind FBP, strep-tagged, recombinant) (enzyme, S. cerevisiae, UniProt P00549 1-500, looked up)
chain: B1 chain with T403E
- binding result [2]: binds

Source: PMC7611853 (Nature cell biology, 2021)
